From publication PMC11464717, “Structural basis for antibiotic transport and inhibition in PepT2” (Nature Communications, 2024) come the findings set out here.

For the assay, the target named is T1, PepT2 (SLC15A2) from Rattus norvegicus (Rattus norvegicus, UniProt Q63424).
T1 construct: Proton-coupled peptide transporter PepT2 (SLC15A2), Rattus norvegicus; The extracellular domain is in the protein but was not built in the deposited models; also called rat PepT2; ratPepT2; source: HEK293F, transfected, purified (nickel NTA, TEV cleavage, SEC) in DDM:CHS; also reconstituted into POPE:POPG liposomes; not shown: GFP, C-terminal, cleaved; His tag, C-terminal, cleaved
Nature of the assay: cryo-EM structure; PepT2 after size exclusion (DDM:CHS) mixed with 1 mM antibiotic (cefadroxil, amoxicillin or cloxacillin) for one hour, then 1.2 molar excess of nanobody D8, on ice for at least 30 min; PepT2 at 5-6 mg/mL. The conditions noted are these: both partners purified.

B1: nanobody (D8) (VHH)
VHH: QVQLVESGGGLVQPGGSLRLLCVASGRPFNDYDMGWFRQAPGKEREFVASISWSGRVTDYSDSMKGRCTVSRDNAKGTMFLQMSNLVPRDTAVYYCAAARRRWTFKATNTEEFYETWGQGTQVTVSS
notes: The nanobody was in the complexes solved here (PDB 9BIR, 9BIS, 9BIT, 9BIU); Its expression plasmid is deposited at Addgene; also called the nanobody
Take B1: the binding result is “binds”.
